These results are taken from publication PMC5542768, “Structural insight into the activation of a class B G-protein-coupled receptor by peptide hormones in live human cells” (eLife, 2017).

By EC50 is commonly meant the midpoint of the concentration-response curve. The low end stands for greater potency, the high end for weaker potency.

Non-standard residues stand in square brackets, D forms with d. No end group written: not given here. *: point of attachment. Nle = CCCC[C@H](N)C(=O)O; ClAc = O=C(CCl)*

One experiment deals with corticotropin-releasing factor receptor type 1 (CRF1R), wild type (rat) (UniProt P35353).
Experiment: not given
Settings: not given
As for CRF(9-41) (peptide), the Receptor activation at 100 nM [%] (cAMP accumulation, normalized to Ucn1 or CRF) amounted to 4.03%.
Regarding Ucn1(8-40) (peptide), the Receptor activation at 100 nM [%] (cAMP accumulation, normalized to Ucn1 or CRF) worked out at 8.2%.
Regarding “Urocortin I (Ucn1) (from UniProt P55089 83-124) (peptide)”, the EC50 of cAMP accumulation (CRE-luciferase reporter) in HEK293 cells transfected with CRF1R was found to be 160 pM.
[ClAc^0]-^dFXCRF(12-41) (peptide) yielded a Receptor activation at 100 nM [%] (cAMP accumulation, normalized to Ucn1 or CRF) of 0.62%.
Substance “[DPhe^12,Nle^21,38]-CRF(12-41) (peptide)” came in with a Receptor activation at 100 nM [%] (cAMP accumulation, normalized to Ucn1 or CRF) of 0.53%.
[Lys(ClAc)^13]-^XCRF (peptide) displayed an EC50 of cAMP accumulation (CRE-luciferase reporter) in HEK293 cells transfected with CRF1R of 30 pM.
Substance [Lys(ClAc)^13]-^dFXCRF(12-41) (peptide) displayed a Receptor activation at 100 nM [%] (cAMP accumulation, normalized to Ucn1 or CRF) of 2.41%.
Same read-out and setting: under [Lys(ClAc)^14]-^dFXCRF(12-41) (peptide) stands 1.49%.
The substance [Lys(ClAc)^15]-^XCRF (peptide) gave an EC50 of cAMP accumulation (CRE-luciferase reporter) in HEK293 cells transfected with CRF1R of 80 pM.
In turn, [Lys(ClAc)^15]-^dFXCRF(12-41) (peptide) registered a Receptor activation at 100 nM [%] (cAMP accumulation, normalized to Ucn1 or CRF) of 0.39%.
For [Lys(ClAc)^16]-^XCRF (peptide), the EC50 of cAMP accumulation (CRE-luciferase reporter) in HEK293 cells transfected with CRF1R was found to be 200 pM.
Substance [Lys(ClAc)^16]-^dFXCRF(12-41) (peptide) displayed a Receptor activation at 100 nM [%] (cAMP accumulation, normalized to Ucn1 or CRF) of 1.06%.
Take [Lys(ClAc)^17]-^XCRF (peptide): the EC50 of cAMP accumulation (CRE-luciferase reporter) in HEK293 cells transfected with CRF1R was determined as 80 pM.
The substance [Lys(ClAc)^17]-^dFXCRF(12-41) (peptide) displayed a Receptor activation at 100 nM [%] (cAMP accumulation, normalized to Ucn1 or CRF) of 0.31%.
[Lys(ClAc)^18]-^XCRF (peptide) yielded an EC50 of cAMP accumulation (CRE-luciferase reporter) in HEK293 cells transfected with CRF1R of 30 pM.
For the substance [Lys(ClAc)^18]-^dFXCRF(12-41) (peptide), the Receptor activation at 100 nM [%] (cAMP accumulation, normalized to Ucn1 or CRF) is 0.59%.
Take [Lys(ClAc)^31]-^XCRF (peptide): the EC50 of cAMP accumulation (CRE-luciferase reporter) in HEK293 cells transfected with CRF1R was 60 pM.
Consider [Lys(ClAc)^31]-^dFXCRF(12-41) (peptide), for which the Receptor activation at 100 nM [%] (cAMP accumulation, normalized to Ucn1 or CRF) was found to be 0.52%.
With [Lys(ClAc)^33]-^XCRF (peptide), the EC50 of cAMP accumulation (CRE-luciferase reporter) in HEK293 cells transfected with CRF1R came to 40 pM.
Substance [Lys(ClAc)^33]-^dFXCRF(12-41) (peptide) displayed a Receptor activation at 100 nM [%] (cAMP accumulation, normalized to Ucn1 or CRF) of 1.85%.
The substance “corticotropin-releasing factor (CRF) (from UniProt P06850 154-196) (peptide)” returned an EC50 of cAMP accumulation (CRE-luciferase reporter) in HEK293 cells transfected with CRF1R of 110 pM.

In another experiment the target is T1, CRF1R (Rattus norvegicus, UniProt P35353).
T1 construct: all our experimental data are obtained from the intact full-length, fully glycosylated receptor at the membrane of the live cell; expressed in transfected cells; host or cells: HEK293 (transient co-transfection with CRE-luciferase reporter and Renilla plasmid)
T1 sequence (P35353 24-415): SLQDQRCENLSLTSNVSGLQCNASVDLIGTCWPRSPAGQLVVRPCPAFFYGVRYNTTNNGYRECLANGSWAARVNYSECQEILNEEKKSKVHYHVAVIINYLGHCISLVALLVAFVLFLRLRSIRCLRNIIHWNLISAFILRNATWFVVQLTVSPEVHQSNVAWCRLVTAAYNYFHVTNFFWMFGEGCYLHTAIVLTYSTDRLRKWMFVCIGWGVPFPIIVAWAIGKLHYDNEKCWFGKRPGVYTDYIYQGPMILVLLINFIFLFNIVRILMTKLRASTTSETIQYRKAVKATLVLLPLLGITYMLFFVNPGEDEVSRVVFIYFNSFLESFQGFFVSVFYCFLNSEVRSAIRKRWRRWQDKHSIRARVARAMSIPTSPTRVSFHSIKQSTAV
Description: cAMP accumulation assay via luciferase reporter (ligand alone). The class given is cell-based. Particulars: 100 nM peptide; normalized to either Ucn1 or CRF; HEK293; mean ± s.e.m., at least three independent experiments, each in triplicate. The source says: Figure 1. Photo-crosslinking mapping of CRF1R to determine footprints of agonists and antagonists. (A) Sequence alignment of CRF1R peptide ligands. The classification into N-terminus, C-terminus and helical connector is adopted from [Beyermann et al. (2000]). […] In ^dFXCRF(12-41), substitutions of the two native Met residues to Nle and the N-terminal D-amino acid to enhance its stability and potency ([Rivier and Rivier, 2014]). […] The assay measures cAMP accumulation in live HEK293 cells stimulated with serial dilutions of each ligand via a luciferase reporter. Plots are representative mean ± s.e.m. of at least three independent experiments, each run in triplicates. (B) CRF1R activation elicited by each of the ligands used in this study. […] (E) Photo-crosslinking experiments. Transiently transfected 293T cells expressing each Azi-CRF1R mutant (residues replaced by Azi are indicated in the upper row) were incubated with each of the five peptide ligands indicated in the right column, followed by UV irradiation (365 nm). […] To obtain sharper bands, samples were deglycosylated by PNGaseF. The subdivision of transmembrane helices and ECLs is based on the crystal structure of the CRF1R TMD ([Hollenstein et al., 2013]). […] DOI: http://dx.doi.org/10.7554/eLife.27711.002 Figure 1—source data 1. Numerical values of cAMP accumulation assay. The assay measures cAMP accumulation in live HEK293 cells stimulated with serial dilutions of each ligand via a luciferase reporter. Raw luminescence data of the firefly reporter luciferase were normalized to the Renilla control and to 100% activation of agonists. At least three independent experiments were performed per ligand, and each experiment was run in triplicate. Values in the table represent a single measurement. Mean ± s.e.m. of triplicates for one representative experiment are reported in Figure 1B–D. DOI: http://dx.doi.org/10.7554/eLife.27711.003 Figure 1—source data 2. Numerical values of whole-cell ELISA of HA-Azi-CRF1R mutants. Related to Figure 1—figure supplement 1. The absorption was measured at 492 nm. Each data point was obtained as mean of three independent experiments, each performed in triplicate. Mean ± s.e.m. of the means of the triplicates are plotted in Figure 1—figure supplement 1B. DOI: http://dx.doi.org/10.7554/eLife.27711.004 Figure 1—figure supplement 1. Expression profiles of a subset of Azi-CRF1R mutants. […] (A) Whole-cell lysates of 293T cells transiently expressing each Azi-CRF1R mutant were resolved on 10% SDS-PAGE and analyzed by Western blotting using an M2 anti-FLAG-HRP antibody. The Azi mutation site is indicated in the top row. […] (B) Whole-cell ELISA of HA-Azi-CRF1R mutants. The absorptions at 492 nm (OD492) are shown as mean ± s.e.m. obtained from three independent experiments each performed in triplicates and normalized to wild type (wt). The positions replaced by Azi are identical to (A). DOI: http://dx.doi.org/10.7554/eLife.27711.005 [drawing 1]
The day prior to transfection, 6 × 10^6 HEK293 cells were seeded in 10 cm dishes. Cells were co-transfected with 0.5 µg of plasmid encoding the wild-type CRF1R gene under control of a PGK promoter, 5 µg of the reporter construct (humanized PpyRE9 [[Branchini et al., 2010]] firefly luciferase gene driven by a cAMP-responsive element and followed by a PEST sequence), and 0.5 µg of plasmid encoding Renilla luciferase driven by a CMV promoter. Transfection was performed using PEI max as described above. The following day, cells were trypsinized and transferred into a 96-well plate at a density of 180,000 cells per well.
(Cyclic AMP is a second messenger, typically raised through Gs and lowered through Gi signalling.)
In the case of “CRF(9-41): 33-mer antagonist obtained by N-terminal truncation of the first eight residues of CRF (DLTFHLLREVLEMARAEQLAQQAHSNRKLMEII; ends and bridges not checked; UniProt P06850 162-194, looked up, fragment)”, the “Receptor activation at 100 nM” value stood at 4.03 ± 1.27%.
On the same count and under the same terms, the value for “Ucn1(8-40): 33-mer N-truncated Ucn1 antagonist, introduced in this work for the first time (DLTFHLLRTLLELARTQSQRERAEQNRIIFDSV; ends and bridges not checked; UniProt P55089 90-122, looked up, fragment)” was 8.20 ± 2.76%; that for “[DPhe^12,Nle^21,38]-CRF(12-41) [^dFXCRF(12-41)]” was 0.53 ± 0.47%.

Still in this experiment, the particulars now being: Figure 1B legend; HEK293, luciferase reporter.
Take “CRF(9-41): 33-mer antagonist obtained by N-terminal truncation of the first eight residues of CRF (DLTFHLLREVLEMARAEQLAQQAHSNRKLMEII; ends and bridges not checked; UniProt P06850 162-194, looked up, fragment)”: the “CRF1R activation / residual activity up to the maximal tested concentration of 100 nM” value was below 10%.
Regarding “Ucn1(8-40): 33-mer N-truncated Ucn1 antagonist, introduced in this work for the first time (DLTFHLLRTLLELARTQSQRERAEQNRIIFDSV; ends and bridges not checked; UniProt P55089 90-122, looked up, fragment)”, the “CRF1R activation / residual activity up to the maximal tested concentration of 100 nM” value was below 10%.
Still for that read-out and setting: the value for “[DPhe^12,Nle^21,38]-CRF(12-41) [^dFXCRF(12-41)]” was “did not elicit any significant receptor activation”.

Still in this experiment, the particulars now being: HEK293, luciferase reporter; agrees with literature data.
With “Urocortin I (DNPSLSIDLTFHLLRTLLELARTQSQRERAEQNRIIFDSVGK) [Ucn1, 40-mer endogenous peptide agonist of CRF1R]”, the “EC50 (Figure 1B legend)” value is listed as “Sub-nanomolar”.
The same measure, in the same setting: the value for “corticotropin-releasing factor (SEEPPISLDLTFHLLREVLEMARAEQLAQQAHSNRKLMEIIGK) [CRF, 41-mer endogenous peptide agonist of CRF1R]” was “Sub-nanomolar”.

Still in this experiment, the particulars now being: cAMP level via luciferase reporter, transiently transfected HEK293 cells, 3 hr stimulation at 37°C; mean ± s.e.m., at least three independent experiments, each in triplicate.
As to “SEEPPISLDLTFHLK(ClAc)REVLE[Nle]ARAEQLAQQAHSNRKL[Nle]EII-NH2 [[Lys(ClAc)^15]- ^XCRF]”, the EC50 is 80 ± 220 pM.
Same read-out and setting: under “SEEPPISLDLTFHLLREVLE[Nle]ARAEQLAQQAHK(ClAc)NRKL[Nle]EII-NH2 [[Lys(ClAc)^33]- ^XCRF]” stands 40 pM; under “SEEPPISLDLTFHLLRK(ClAc)VLE[Nle]ARAEQLAQQAHSNRKL[Nle]EII-NH2 [[Lys(ClAc)^17]- ^XCRF]”, 80 pM.

For the next experiment, the system named is CRF1R.
Experiment: not given
As to conditions: ref Gulyas et al., 1995; cited from earlier work.
As to “[DPhe^12,Nle^21,38]-CRF(12-41) [^dFXCRF(12-41)]”, the “Binding affinity of CRF1R relative to CRF (lower)” value is ~ 10 fold.
